From patent publication US6177557, “High affinity ligands of basic fibroblast growth factor and thrombin” (NeXstar Pharmaceuticals, Inc.)

Assays:
[1] = target: T1, basic fibroblast growth factor (bFGF) (UniProt P09038 P09038:135-288); experiment: filter; PBS; settings: tags: Bachem California, 18 kDa, 154 aa; 125I-labeled for receptor assays; label: 32P
Description: (§1) In order to eliminate higher order structures, all DNA solutions were heated to 90° C. in PBS for 2–3 minutes and cooled on ice prior to incubation with protein. Relative binding affinity of individual ligands to bFGF cannot be predicted from sequence information. The majority of sequence isolates were therefore screened for their ability to bind to bFGF by measuring the fraction of radiolabeled DNA bound to nitrocellulose filters following incubation with 1 nM protein. […] Binding of these select isolates was then analyzed in more detail.

thrombin (alpha) [2] = target: T2, thrombin (alpha) (human, UniProt P00734;P00734 P00734:328-363,P00734:364-622); experiment: filter; 50 mM Tris pH 7.5, 100 mM NaCl, 1 mM MgCl2, 37 C
[3] = target: T1, basic fibroblast growth factor (bFGF); experiment: filter; PBS, 0.01% HSA, 1 mM DTT, 37 C; +/-0.5; settings: tags: Bachem California, 18 kDa, 154 aa; 125I-labeled for receptor assays
Description: (§2) This affinity screening allowed identification of those ligands with highest affinity for bFGF. Binding of a group of these ligands was analyzed over a range of bFGF concentrations (FIG. 5) and their dissociation constants.(Kd's) were determined as described (Jellinek et al. (1993) Proc. Natl. Acad. Sci. USA 90:11227–11231) (Table IX). RNA concentrations were determined from their absorbance reading at […] (and were typically <100 pM). Binding reactions were done at 37° C. in phosphate buffered saline containing 0.01% human serum albumin and 1 mM DTT.

[4] = target: T1, basic fibroblast growth factor (bFGF); experiment: filter; settings: tags: Bachem California, 18 kDa, 154 aa; 125I-labeled for receptor assays
Description: as §1
Those ligands are M225, M19, m234, M235, and D12 (SEQ ID NOS:359, 353, 387, 360, 332). The minimum size of the region necessary for binding was determined to be 35 bases for M225, M19 and D12 (See Truncations, Table XXI M225t3 (SEQ ID NO:364), M19t2 (SEQ ID NO:365), D12t2 (SEQ ID NO:341)). The ligand with the smallest essential sequence, m234, was isolated from Family 2, Experiment 3 and contains 24 nucleotides (m234t2 (SEQ ID NO:391)). The truncated ligands were tested for binding to bFGF. After truncation, ligands M225t3, M19t2, D12t2, M235t2, and m234t2 have kd values of 0.7 nM, 1 nM, 1 nM, 1 nM, and 6 nM respectively (Table XXII). All five of the truncated molecules lost some of their affinity for bFGF in comparison to the full length ligands. The binding affinity is regained when an additional G-C base pair is added to the blunt end stem of M225t3. This molecule is termed M225t3GC (SEQ ID NO:443). The binding of M225t3GC is 0.2 nM compared to 0.7 nM for M225t3 without the additional base pair (Table XXII).

[5] = target: T1, basic fibroblast growth factor (bFGF); experiment: filter; PBS, 0.01% HSA, 1 mM DTT, 37 C; +/-0.3; settings: tags: Bachem California, 18 kDa, 154 aa; 125I-labeled for receptor assays
Description: as §2

[6] = target: vascular endothelial growth factor (VEGF) (UniProt P15692-4 P15692-4:27-191); experiment: filter; specificity, data not shown; settings: chain copies: 2; label: 32P
thrombin (alpha) [7] = target: T2, thrombin (alpha); experiment: filter; specificity, data not shown
acidic FGF = acidic FGF (UniProt P05230 P05230:16-155); experiment: filter; specificity, data not shown; settings: label: 32P
antithrombin III = antithrombin III (UniProt P01008 P01008:33-464); experiment: filter; specificity, data not shown; settings: label: 32P
antithrombin III, sequence (P01008 33-464, one chain of several): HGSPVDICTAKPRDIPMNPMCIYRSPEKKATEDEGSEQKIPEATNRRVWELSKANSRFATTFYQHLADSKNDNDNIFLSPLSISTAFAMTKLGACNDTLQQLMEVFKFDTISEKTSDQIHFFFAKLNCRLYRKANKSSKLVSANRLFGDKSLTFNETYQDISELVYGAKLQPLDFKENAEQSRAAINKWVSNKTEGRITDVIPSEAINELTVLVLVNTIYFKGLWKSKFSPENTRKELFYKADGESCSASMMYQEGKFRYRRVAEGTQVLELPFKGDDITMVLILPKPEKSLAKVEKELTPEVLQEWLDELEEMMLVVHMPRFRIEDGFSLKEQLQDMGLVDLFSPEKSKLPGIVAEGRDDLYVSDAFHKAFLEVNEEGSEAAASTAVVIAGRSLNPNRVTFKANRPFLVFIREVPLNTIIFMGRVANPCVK

T1 sequence (P09038 135-288, one chain of several): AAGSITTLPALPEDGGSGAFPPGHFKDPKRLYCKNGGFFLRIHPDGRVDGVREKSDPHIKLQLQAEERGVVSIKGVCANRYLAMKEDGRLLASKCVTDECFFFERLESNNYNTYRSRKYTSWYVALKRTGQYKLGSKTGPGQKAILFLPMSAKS
vascular endothelial growth factor (VEGF), sequence (P15692 other isoform, or with tags, fused parts or gaps): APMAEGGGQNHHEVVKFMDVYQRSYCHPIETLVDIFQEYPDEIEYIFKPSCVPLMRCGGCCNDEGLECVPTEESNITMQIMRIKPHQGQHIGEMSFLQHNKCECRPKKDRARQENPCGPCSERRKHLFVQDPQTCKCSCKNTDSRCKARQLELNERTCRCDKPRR
acidic FGF, sequence (P05230 16-155, one chain of several): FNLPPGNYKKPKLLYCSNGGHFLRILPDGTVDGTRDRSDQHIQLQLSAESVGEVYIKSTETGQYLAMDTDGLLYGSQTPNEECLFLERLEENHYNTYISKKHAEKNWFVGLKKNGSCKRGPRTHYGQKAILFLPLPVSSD

B1: M235 (ssDNA)
DNA: GGGAGGACGATGCGGGGCTCTGCAAAGGACACAGGTCCTACGCATCAGACGACGACGGGGA
Kd [1]: 0.2 nM

B2: 30-8 (ssDNA)
DNA: AGATGCCTGTCGAGCATGCTGTGAATAGGTAGGGTCGGATGGGCTACGGTGTAGCTAAACTGCTTTGTCGACGGG
Kd (thrombin (alpha) [2]): 0.4 nM

B3: 2'-NH2 22B (ssRNA)
RNA: GGGAGGACGAUGCGGCGUGGUUCCGUGGGUGGUGAGAUGAGACUUAAUCAGUUCGUAGACCGGUCAGACGACUCGCCCGA
modifications: 2'-NH2 pyrimidines
Kd [3]: 2.8 nM

AGGCCAGGGCTATGCAAATCGCGGCGCCTATGGCC (ssDNA) [D12t2]
Kd [4]: 1 nM

B4: 30-35 (ssDNA)
DNA: AGATGCCTGTCGAGCATGCTGGGAGTGGTAGGAGTAGGGTTGGAGCCGTAGTAGCTAAACTGCTTTGTCGACGGG
Kd (thrombin (alpha) [2]): 1.4 nM

B5: 30-14 (ssDNA)
DNA: AGATGCCTGTCGAGCATGCTGTTGTGGTAGGGTTAGGGATGGTAGCGGTTGTAGCTAAACTGCTTTGTCGACGGG
Kd (thrombin (alpha) [2]): 1 nM

CGAGGAGCTTTAGCGCCACAGGTT (ssDNA) [m234t2]
Kd [4]: 6 nM

CAGTCCGTGGTAGGGCAGGTTGGGGTGACTTCGTGGAA (ssDNA) [60-18(38)]
Kd (thrombin (alpha) [2]): 1.9 nM

B6: 2'-NH2 72B (ssRNA)
RNA: GGGAGGACGAUGCGGCUCAGCAUCCAGGAAGGGGACUUGGUAGGGCACCAUCGAGAUCUUGGCGUCAGACGACUCGCCCGA
modifications: 2'-NH2 pyrimidines
Kd [3]: 3.4 nM

B7: 2'-NH2 49A (ssRNA)
RNA: GGGAGACAAGAAUAACGCUCAAAUGGUGUGUGGAAGACAGUGGGUGGUUGCAUUCGACAGGAGGCUCACAACAGGC
modifications: 2'-NH2 pyrimidines
Kd [5]: 1.4 nM

B8: 2'-NH2 53A (ssRNA)
RNA: GGGAGACAAGAAUAACGCUCAAUGAGGAUCGGAUGGGGAGCAGGCGGAGGAAUUCGACAGGAGGCUCACAACAGGC
modifications: 2'-NH2 pyrimidines
Kd [5]: 1.5 nM

B9: 2'-NH2 58A (ssRNA)
RNA: GGGAGACAAGAAUAACGCUCAAUUAACGGCGUGGUCCGAGGGUGGCGAGUACUUCGACAGGAGGCUCACAACAGGC
modifications: 2'-NH2 pyrimidines
Kd [5]: 1.4 nM

B10: 26A (ssRNA)
RNA: GGGAGCUCAGAAUAAACGCUCAACGUCAGAAGGCAACGUAUAGGCAAGCACACUUCGACAUGAGGCCCGGAUCCGGC
Kd [6]: > 300 nM | Kd (thrombin (alpha) [7]): > 300 nM | Kd (acidic FGF): > 300 nM | Kd (antithrombin III): > 300 nM

B11: 7A (ssRNA)
RNA: GGGAGCUCAGAAUAAACGCUCAAUCGGCGAGCUAACCAAGACACUCGCUGCACUUCGACAUGAGGCCCGGAUCCGGC
Kd [6]: > 300 nM | Kd (thrombin (alpha) [7]): > 300 nM | Kd (acidic FGF): > 300 nM | Kd (antithrombin III): > 300 nM

B12: 60-7 (ssDNA)
DNA: AGATGCCTGTCGAGCATGCTGGCGGCGTTGGTGTAGTGGCGCACTGTGGTTGGGCGGAGAGGCTAGGAGTGCATGATGCCGTAGCTAAACTGCTTTGTCGACGGG
Kd (thrombin (alpha) [2]): 2.5 nM

B13: M19 (ssDNA)
DNA: GGGAGGACGATGCGGGGCTATGTAAATTACTGCTGTACTACGCATCAGACGACGACGGGGA
Kd [1]: 0.3 nM

B14: 2'-NH2 52B (ssRNA)
RNA: GGGAGGACGAUGCGGGGAGGGGCAGGUUCGAUGCGGGAGCGACUGACCACGAGAAAUGUGCGGGUCAGACGACUCGCCCGA
modifications: 2'-NH2 pyrimidines
Kd [5]: 2.3 nM

GCGGGGCTATGTAAATTACTGCTGTACTACGCATC (ssDNA) [M19t2]
Kd [4]: 1 nM

B15: 60-27 (ssDNA)
DNA: AGATGCCTGTCGAGCATGCTGGCGTCCGATGATTCAGGTCGTGGTAGGCATTGAGGGATGGGGTCCTGTGGGACTGGCCTGTAGCTAAACTGCTTTGTCGACGGG
Kd (thrombin (alpha) [2]): 0.96 nM

B16: m206 (ssDNA)
DNA: GGGAGGACGATGCGGACCTGGTGGCTGTGCTTATGTCCCCCTCATCAGACGACGACGGGGA
Kd [1]: 1.8 nM

B17: m224 (ssDNA)
DNA: GGGAGGACGATGCGGCACCGAGGAATAACTGACGCCAGGCTGGCGCAGACGACGACGGGGA
Kd [1]: 1.5 nM

B18: m234 (ssDNA)
DNA: GGGAGGACGATGCGGCCCGAGGAGCTTTAGCGCCACAGGTTTGTGCAGACGACGACGGGGA
Kd [1]: 0.7 nM

B19: M17 (ssDNA)
DNA: GGGAGGACGATGCGGGGGGCTTTGCAAAAATTGTTAAATCTACCCCAGACGACGACGGGGA
Kd [1]: 6.9 nM

B20: 2'-NH2 47B (ssRNA)
RNA: GGGAGGACGAUGCGGAGGGUGGCUGGGAGGACCCGCGGUGAAUCGGUAGCACAGUGAUGUUCGGUCAGACGACUCGCCCGA
modifications: 2'-NH2 pyrimidines
Kd [5]: 2.9 nM

B21: 30-16 (ssDNA)
DNA: AGATGCCTGTCGAGCATGCTGCCGCTACGAGGGTAGGTGTGGATGCTGCCGTAGCTAAACTGCTTTGTCGACGGG
Kd (thrombin (alpha) [2]): 9.4 nM

B22: 5A (ssRNA)
RNA: GGGAGCUCAGAAUAAACGCUCAAAUCUCCUCCCGUCGAAGCUAACCUGGCCACUUCGACAUGAGGCCCGGAUCCGGC
Kd [6]: > 300 nM | Kd (thrombin (alpha) [7]): > 300 nM | Kd (acidic FGF): > 300 nM | Kd (antithrombin III): > 300 nM

B23: 60-18 (ssDNA)
DNA: AGATGCCTGTCGAGCATGCTCTTTGGAGACAGTCCGTGGTAGGGCAGGTTGGGGTGACTTCGTGGAAGAAGCGAGACGGTGTAGCTAAACTGCTTTGTCGA
Kd (thrombin (alpha) [2]): 0.92 nM

B24: 30-6 (ssDNA)
DNA: AGATGCCTGTCGAGCATGCTACACCCGTGGTAGGGTAGGATGGGGTGGTCGTAGCTAAACTGCTTTGTCGACGGG
Kd (thrombin (alpha) [2]): 1.2 nM

B25: M225 (ssDNA)
DNA: GGGAGGACGATGCGGGGCTACGTACCGGGGCTTTGTAAAACCCCGCAGACGACGACGGGGA
Kd [1]: 0.1 nM

GGCGGGGCTACGTACCGGGGCTTTGTAAAACCCCGCC (ssDNA) [M225t3GC]
Kd [4]: 0.2 nM

B26: 2'-NH2 54A (ssRNA)
RNA: GGGAGACAAGAAUAACGCUCAAACUGUUGUGUGGAAGACAGCGGGUGGUUGAUUCGACAGGAGGCUCACAACAGGC
modifications: 2'-NH2 pyrimidines
Kd [5]: 1.7 nM

GCGGGGCTCTGCAAAGGACACAGGTCCTACGCATCAG (ssDNA) [M235t2]
Kd [4]: 1 nM
